18 molecules from US20260078159A1 (CUGENE, published 2026) can be followed below.

Substitutions are numbered along the chain they refer to. Names may count otherwise. “And” between values parts separate entries of the source, which are not always exact repeats. Identical values can stand only once. Like-named read-outs stand apart in the source and are kept apart here.

Assay [1] addresses T1, human PD1 on cells (human, UniProt Q15116 25-288). Kind of assay: cell-based or functional assay.
The target in assay [2] is T2, recombinant human PD1 protein (human, UniProt Q15116 25-170, limits assumed). Kind of assay: binding ELISA, plate-coated recombinant human PD1. The procedure: Antibodies of the invention were tested for their antigen binding activity by well-known methods such as enzyme-linked immunosorbent assay (ELISA). Briefly, Nunc Maxisorp plates (ThermoFisher) were coated with recombinant human PD1 protein in bicarbonate buffer, pH 9.4 (ThermoFisher), overnight at 4° C., using 1 μg of antigen per well (100 μL/well). After triple washing with PBS/0.05% Tween 20, plates were incubated with SuperBlock (ThermoFisher) for two hours at room temperature to block nonspecific binding. The PD1 antibodies, serially diluted three-fold with blocking buffer (PBS with 1% bovine serum albumin) were added to the plates (100 μL/well) post washing and incubated at room temperature for one hour. After another washing, antibodies were detected by incubating with a horseradish peroxidase (HRP)-conjugated goat anti-human IgG Fc antibody (ThermoFisher) diluted 1:5000 in blocking buffer (100 μL/well) for one hour at room temperature. After a final wash, TMB substrate (ThermoFisher) at 100 μL/well was added. Plates were sealed and left to incubate in dark for 5-20 minutes. The reaction was stopped by adding 2N sulfuric acid (Ricca Chemical) (50 μL/well), and the absorbance was measured at 450 nm with a plate reader. The curves were plotted, and the half-maximal effective concentration (EC₅₀) values were calculated using GraphPad Prism software.
T2 sequence (Q15116 25-170 limits assumed): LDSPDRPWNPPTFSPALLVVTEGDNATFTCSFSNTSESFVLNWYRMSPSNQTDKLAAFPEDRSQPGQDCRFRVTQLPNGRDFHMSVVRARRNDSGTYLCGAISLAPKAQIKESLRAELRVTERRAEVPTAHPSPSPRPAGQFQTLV

Assay [3] deals with T1, human PD1 on cells. Kind of assay: cell-based or functional assay. This is another data set of the same source.
Assay [4] deals with T1, human PD1 on cells. Kind of assay: cell-based or functional assay. This is another data set of the same source.
Assay [5] addresses T1, human PD1 on cells. Kind of assay: flow cytometry on PD1+ HEK293 cells, % positive cells. Here is the method: (§1) Additionally, HEK 293T cells stably expressing human PD1 gene (Crown Bioscience) was used to determine the cell-based binding strength of the optimized PD1 antibodies by flow cytometry. After harvesting, HEK293-hPD1 cells were seeded into a 96-well U-bottom plate at 1×10⁵ cells/well (100 μL), incubated with Fc block (1:50) for 20 minutes at 4° C., and subsequently washed with FACS buffer (PBS, 1% FBS). Cells were then treated with three-fold serial dilutions of each antibody at concentrations ranging from 0.01-100 nM in FACS buffer for 30 minutes at 4° C. Subsequently, cells were washed twice with FACS buffer to remove unbound molecules, and 40 µL of the 1:100 diluted PE-labeled goat anti-human Fc secondary antibody (eBiosciences) was added to the cells. Following a 30-minute incubation at 4° C. and another double wash with FACS buffer, antibodies bound to the cells were detected with PE-labeled secondary antibody by flow cytometry (BD ACCURI-C6), and EC₅₀ values were calculated using GraphPad Prism software.
On the technique in general: In flow cytometry, cells or beads pass a laser one at a time.

Assay [6] concerns the target T1, human PD1 on cells. Put plainly: flow cytometry on PD1+ HEK293 cells, MFI. The procedure: as §1
Assay [7] has as its target T2, recombinant human PD1 protein. Put plainly: competition ELISA, PD1 coated, biotinylated human PD-L1-Fc at 0.5 µg/mL as competitor. Here is the method:
A non-targeting germline antibody, P-1260 (SEQ ID NOS: 171, 172 and 173) was included as the negative control. The binding ELISA procedures were outlined in Example 3. The competition ELISA followed a similar protocol. […] After 1-hour incubation at 37° C., HRP-conjugated Streptavidin (ThermoFisher) diluted to 0.1 μg/ml were added to the plate and incubate at 37° C. for 1 hour. The plate was subsequently developed using TMB (ThermoFisher) substrate. Absorbance readings were taken at 450 nm, with 630 nm as the reference wavelength. The half-maximal inhibitory concentrations (IC50) values were deduced using GraphPad Prism software.
(In general: An ELISA detects its analyte on a solid surface through an enzyme-linked reagent.)

T1 sequence (Q15116 25-288 limits assumed): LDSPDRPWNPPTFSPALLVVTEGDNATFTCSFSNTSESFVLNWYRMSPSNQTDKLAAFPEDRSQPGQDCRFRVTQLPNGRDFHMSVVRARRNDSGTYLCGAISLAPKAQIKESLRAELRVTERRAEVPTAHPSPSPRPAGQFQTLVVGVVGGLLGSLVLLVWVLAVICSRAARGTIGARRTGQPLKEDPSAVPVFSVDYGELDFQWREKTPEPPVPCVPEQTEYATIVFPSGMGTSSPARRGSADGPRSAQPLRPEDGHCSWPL

B1: P-1148 (antibody, human IgG1, kappa, V domains shown)
VH: QVQLVQSGVEVKKPGASVKVSCKASGYTFTNYYMYWVRQAPGQGLEWMGGINPSNGGTNFAQKFQGRVTLTTDSSTTTAYMELKSLQFDDTAVYYCARRDYRFDMGFDYWGQGTTVTVSS
VL: EIVLTQSPATLSLSPGERATLSCRASQGVSTSGYSYLHWYQQKPGQAPRLLIYLASYRASGVPARFSGSGSGTDFTLTISSLEPEDFAVYYCQHSRDLPLTFGGGTKVEIKR
notes: Full-length IgG1 L234A/L235A/G237A, kappa
In general, EC50 refers to the midpoint of the concentration-response curve. Regarding B1, in the assay with human PD1 on cells [1], the “PD1 blocking activity (reporter assay) EC50” value stood at 1.56 nM, the “PD1 blocking activity (reporter assay) Fold induction” value amounted to 4.63 fold and the “PD1 blocking activity (reporter assay) Vmax” value turned out to be 48200 RLU. In assay [2], the concentration giving a half-maximal response (EC50) is 0.093 nM.

B2: P-1181 (antibody, human IgG1, kappa, V domains shown)
VH: EVQLLESGGGLVQPGGSLRLSCAASGFTFTNYYMYWVRQAPGKGLEWVSGINPSNGGTNFNDSVKGRFTISRDNSKNTLYLQMNSLRAEDTAVYYCARRDYRFDMGFDYWGQGTLVTVSS
VL: B1 VL with Q27K, R58L, A59E
Turning to B2, in the assay with human PD1 on cells [3], the “PD1 blocking activity (reporter assay) EC50” value stood at 9.18 nM, the “PD1 blocking activity (reporter assay) Fold induction” value is 3.26 fold and the “PD1 blocking activity (reporter assay) Vmax” value came out at 29600 RLU. For the same molecule, in the assay with human PD1 on cells [4], the “drop in potency compared to P-0734” value came out at 15 fold.

B3: P-1238 (antibody, human IgG1, kappa, V domains shown)
VH: B2 VH with V48M, S49G, F60Y, N61A, S63K, V64F, I70L, R72T, N74S
VL: B1 VL with A59E
B3: the “PD1 blockade reporter assay EC50” value with human PD1 on cells [4] amounted to 0.73 nM.

B4: P-1127 (antibody, human IgG1, kappa, V domains shown)
VH: B1 VH with A61N, Q62E, Q65K, G66N
VL: B1 VL with A59E
On to B4, for which the “PD1 blockade reporter assay EC50” value with human PD1 on cells [4] is 0.39 nM and 0.54 nM.

B5: P-1129 (antibody, human IgG1, kappa, V domains shown)
VH: B1 VH with A61N, Q62E, Q65K, G66N
VL: B1 VL
Consider B5, for which, in the assay with human PD1 on cells [4], the “PD1 blockade reporter assay EC50” value was determined as 0.58 nM.

B6: P-1177 (antibody, human IgG1, kappa, V domains shown)
VH: B2 VH with V48M, S49G, F60Y, N61A, S63K, V64F
VL: B1 VL with Q27K, R58L, A59E
For B6, in the assay with human PD1 on cells [3], the “PD1 blocking activity (reporter assay) EC50” value turned out to be 1.51 nM, the “PD1 blocking activity (reporter assay) Fold induction” value is 4.77 fold and the “PD1 blocking activity (reporter assay) Vmax” value is 48100 RLU.

B7: P-1198 (antibody, human IgG1, kappa, V domains shown)
VH: B2 VH with N61A, S63K, V64F, N74S
VL: B1 VL with A59E
notes: as for B1
As for B7, the EC50 with human PD1 on cells [5] is 0.019 nM; with human PD1 on cells [6], 0.087 nM.

B8: P-1176 (antibody, human IgG1, kappa, V domains shown)
VH: B2 VH with F60Y, N61A, S63K, V64F, I70L, R72T, N74S
VL: B1 VL with Q27K, R58L, A59E
In the case of B8, in the assay with human PD1 on cells [3], the “PD1 blocking activity (reporter assay) EC50” value is 0.67 nM, the “PD1 blocking activity (reporter assay) Fold induction” value is 5.27 fold and the “PD1 blocking activity (reporter assay) Vmax” value was 52100 RLU.

B9: P-1175 (antibody, human IgG1, kappa, V domains shown)
VH: B2 VH with F60Y, N61A, S63K, V64F
VL: B1 VL with Q27K, R58L, A59E
Regarding B9, in the assay with human PD1 on cells [3], the “PD1 blocking activity (reporter assay) EC50” value worked out at 6.21 nM, the “PD1 blocking activity (reporter assay) Fold induction” value amounted to 4.07 fold and the “PD1 blocking activity (reporter assay) Vmax” value came to 42000 RLU. Also, in the assay with human PD1 on cells [4], the “decrease in Emax and fold induction compared to P-0734” value stood at 25%; the “reduction in potency (EC50) compared to P-0734” value is 10 fold.

B10: P-1178 (antibody, human IgG1, kappa, V domains shown)
VH: B2 VH with V48M, S49G, F60Y, N61A, S63K, V64F, I70L, R72T, N74S
VL: B1 VL with Q27K, R58L, A59E
Take B10: in the assay with human PD1 on cells [3], the “PD1 blocking activity (reporter assay) EC50” value stood at 0.68 nM, the “PD1 blocking activity (reporter assay) Fold induction” value turned out to be 5.5 fold and the “PD1 blocking activity (reporter assay) Vmax” value worked out at 53100 RLU.

B11: P-1151 (antibody, human IgG1, kappa, V domains shown)
VH: B1 VH with F60Y
VL: B1 VL
notes: as for B1
With B11, in the assay with human PD1 on cells [1], the “PD1 blocking activity (reporter assay) EC50” value stood at 2.83 nM, the “PD1 blocking activity (reporter assay) Fold induction” value was 4.15 fold and the “PD1 blocking activity (reporter assay) Vmax” value was 44300 RLU. The concentration giving a half-maximal response (EC50) in assay [2] stood at 0.065 nM.

B12: P-1199 (antibody, human IgG1, kappa, V domains shown)
VH: B2 VH with N61A, S63K, V64F, R72T, N74S
VL: B1 VL with A59E
notes: as for B1
Regarding B12, the figures for the EC50 with human PD1 on cells [5] and in the assay with human PD1 on cells [6] were 0.016 nM and 0.12 nM, respectively.

B13: P-1150 (antibody, human IgG1, kappa, V domains shown)
VH: B1 VH
VL: B1 VL with H38A
notes: as for B1
Take B13: in the assay with human PD1 on cells [1], the “PD1 blocking activity (reporter assay) EC50” value worked out at 5.55 nM, the “PD1 blocking activity (reporter assay) Fold induction” value is 3.49 fold and the “PD1 blocking activity (reporter assay) Vmax” value is 36500 RLU. The EC50 in assay [2] is 0.088 nM.

B14: P-1153 (antibody, human IgG1, kappa, V domains shown)
VH: B1 VH with F60Y
VL: B1 VL with H38A
notes: as for B1
For the molecule B14, the “decrease in PD1 blockade potency (EC50) compared to P-0734” value with human PD1 on cells [4] is roughly 20 fold. In addition, in the assay with human PD1 on cells [1], the “PD1 blocking activity (reporter assay) EC50” value was 9.88 nM, the “PD1 blocking activity (reporter assay) Fold induction” value is 3.04 fold and the “PD1 blocking activity (reporter assay) Vmax” value amounted to 30800 RLU. Further, the EC50 in assay [2] was determined as 0.11 nM.

B15: P-1174 (antibody, human IgG1, kappa, V domains shown)
VH: B1 VH
VL: B1 VL with A59E
For the molecule B15, the “PD1 blockade reporter assay EC50” value in the assay with human PD1 on cells [4] was 0.67 nM.

B16: P-1271 (antibody, human IgG1, kappa, V domains shown)
VH: B1 VH with V9A, T77S, K84S, Q87R, F88S, T115L
VL: B1 VL with A59E
By IC50 is commonly meant the concentration that inhibits the measured activity by half. For the molecule B16, the “PD1 blockade reporter assay EC50” value in the assay with human PD1 on cells [4] turned out to be 0.66 nM. The half-inhibitory concentration (IC50) in assay [7] was found to be 1.42 nM. Moreover, in assay [2], the EC50 amounted to 0.0268 nM.

B17: P-1201 (antibody, human IgG1, kappa, V domains shown)
VH: B2 VH with N61A, S63K, V64F, I70L, R72T, N74S
VL: B1 VL with A59E
As to B17, the “PD1 blockade reporter assay EC50” value in the assay with human PD1 on cells [4] came to 1.28 nM. Moreover, the EC50 in the assay with human PD1 on cells [5] worked out at 0.033 nM; with human PD1 on cells [6], 0.159 nM.

B18: P-1193 (antibody, human IgG1, kappa, V domains shown)
VH: B2 VH with N61A, S63K, V64F
VL: B1 VL with A59E
notes: as for B1
Consider B18, for which the EC50 with human PD1 on cells [5] was determined as 0.07 nM; in the assay with human PD1 on cells [6], 0.259 nM.
